{"source": "paper PMC5119889", "key": {"[1]": {"target": "α1A-tubulin (α-Tubulin-CT) 399-451 (UniProt Q71U36)", "assay": "GST pull-down, anti-His blot", "conditions": "sites S245"}, "[2]": {"target": "polymerized microtubules from Cos7 lysate", "assay": "tubulin cosedimentation assay, band densitometry of immunoblots", "conditions": "pre-cleared lysates of Cos7 cells expressing FLAG tagged GIV-WT or SD mutant; n = 3; parent: est. 0.90; read off a plot"}}, "data": [{"substance": "GIV (Girdin) 1-440 (from UniProt Q3V6T2) His-GIV-NT WT phosphorylated by AMPK", "values": [{"measurement": "binding against the reference", "setting": "[1]; reference: His-GIV-NT WT, not phosphorylated", "result": "gained"}]}, {"substance": "GIV (Girdin) 1-440 (from UniProt Q3V6T2) S245A, AMPK-treated", "values": [{"measurement": "binding against the reference", "setting": "[1]; reference: wild type, AMPK-treated", "result": "lost"}]}, {"substance": "GIV-FLAG WT, full length human GIV (from UniProt Q3V6T2) S245D", "values": [{"measurement": "other: Ratio of GIV (Pellet:Supernatant)", "setting": "[2]", "result": 2}]}]}
